Measured values from patent publication US20240101708A1 (Genentech, published 2024).

What was measured:
[1] = biological target: T1, recombinant human ZNRF3 extracellular domain (human, UniProt Q9ULT6 56-219); test: SPR Biacore 8K; antibody captured on Protein A; ZNRF3 ECD analyte; 25 C
T1 construct: extracellular domain; also called huZNRF3; human ZNRF3 ECD
T1 sequence (looked up): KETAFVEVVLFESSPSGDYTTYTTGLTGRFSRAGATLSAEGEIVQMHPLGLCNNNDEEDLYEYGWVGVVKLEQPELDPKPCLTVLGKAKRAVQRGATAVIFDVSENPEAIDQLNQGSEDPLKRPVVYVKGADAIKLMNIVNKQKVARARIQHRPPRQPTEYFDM
Description: Antibodies were screened for binding to recombinant human RNF43 and ZNRF3 ECDs using a Biacore® 8 k instrument (GE Life Sciences). Briefly, antibodies diluted to 1 μg/ml in 1×HBSP buffer (Cytiva, BR100368) were captured on a Sensor Chip Protein A (GE Life Sciences) using a flow rate of 10 μl/minute and a contact time of 60 seconds. Binding of recombinant human RNF43 and ZNRF3 extracellular domain to the captured antibodies was analyzed at 25° C. using a single cycle kinetics method with a flow rate of 30 μl/minute, a contact time of 180 seconds and a dissociation time of 600 seconds. The concentration of recombinant human RNF43 and ZNRF3 extracellular domain in the single cycle kinetics were 0, 0.8, 4, 20, and 100 nM. Between cycles, the chip was regenerated using 10 mM Glycine HCl pH 1.5 injected for 30 seconds at 30 μl/minute. Data were evaluated using Biacore 8K Evaluation software (GE Life Sciences). Kinetic constants were obtained using a 1:1 binding model with the parameter RI set to zero. Cell surface ligase antibodies with sub-nanomolar affinities may provide advantages in certain instances, for example, in the degradation efficiency which is correlated with the durability of the ternary complex as shown in FIG. 5D.

[2] = biological target: T2, recombinant human RNF43 extracellular domain (human, UniProt Q68DV7 24-197); test: SPR Biacore 8K; antibody captured on Protein A; RNF43 ECD analyte; 25 C
T2 construct: extracellular domain; also called huRNF43; human RNF43 ECD
T2 sequence (looked up): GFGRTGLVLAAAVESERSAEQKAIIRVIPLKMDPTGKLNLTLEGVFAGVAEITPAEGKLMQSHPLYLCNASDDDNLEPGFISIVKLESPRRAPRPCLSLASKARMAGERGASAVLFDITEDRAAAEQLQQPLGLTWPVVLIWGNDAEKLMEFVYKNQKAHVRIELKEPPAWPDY

B1: ZNRF3-117 (antibody, V domains shown)
VH: EIQLQESGPGLVKPSQSLSLTCSVTGYTITSDYDWSWIRKFPGNKMEWMGYINYSGSTNYNPSLKSRISFTRDTSKNQFFLQLNSITTDDTATYYCARYGPYYGFSDWYFDFWGPGTMVTVSS
VL: DVQMTQSPSYLAASPGESVSISCKASQSISNYLAWYQQKPGKTYRLLIYSGSTLQSGTPSRFSGSGSGTDFTLTIRSLEPEDFGLYYCQQYYEKPLTFGSGTKLEIK
notes: Rat clone; VH/VL only
For B1, the Kd [1] was 0.2 nM.

B2: ZNRF3-333 (antibody, V domains shown)
VH: QSLEESGGGLVQPEGSLTLTCTASGIDFSARSYMCWVRQAPGKGLEWVACIYTGSSGSTYYANWAKGRFTISKTSSTTVTLRMTSLTAADTASYFCARGAYVGYGFAAYFTLWGPGTLVTVSS
VL: DIVMTQTPASVEAAVGGTVTINCQASQSISSYLAWYQQKPGQPPKLLIYYASNLESGVPSRFKGSGSGTQFTLTISDLECADAATYYCQAYYSSITGWAFGGGTEVVVK
notes: Rabbit clone; VH/VL only
With B2 the Kd [1] was 8.7 nM.

B3: ZNRF3-195 (antibody, V domains shown)
VH: EVQLVESGGGLVQPGNSLNLSCSASGFPFSTYGMHWIRQAPGKGLDWVAYISYNSGTVYADAVKGRFTISRDNAKNTLYLQLNSLKSEDTAIYYCARGYYDGYYRYWGQGVMVTVSS
VL: DIVMTQSPFSLAVSEGEMVTINCKSSQSLLSSGNQKNYLAWYQQRPGQSPKLLIYHASTRQSGVPDRFIGSGSGTDFTLTISDVQAEDLADYYCLQHYSSPTFGSGTKLEIK
notes: Rat clone; VH/VL only
Work on B3 yielded a Kd [1] of 0.27 nM.

B4: ZNRF3-6 (antibody, V domains shown)
VH: EVQLVESGGGLVPPGKSLKLSCSASGFPFSNYGMHWIRQAPGKGLDWVGYISSNSGTIYADAVKGRFTISRDNAKNTLYLLINSLKSEDTAMYYCARGYFDGYYRFWGQGVMVTVSS
VL: DIVMTQSPFSLAVSEGDMVTIMCRSSQSLLSSGNQKNYLAWYQQKPGQSPKLLIYHASTRQSGVPDRFIGSGSGTDFTLTISDVQAEDLADYYCLQHYSSPTFGSGTKLEIK
notes: Rat clone; VH/VL only
With B4 the Kd [1] was 0.12 nM.

B5: RNF43-11 (antibody, V domains shown)
VH: QEQLVESGGGLVQPEGSLTLTCKASGFDFSSNVMCWVRQAPGKGLEWIGCIYTGSSGSTYYASWAKGRFTITRSTSLNTVTLQMTSLTAADTATYFCARYVSGGEYYNLWGPGTLVTVSS
VL: ALVMTQTPASVEAAVGGTVTINCQASESISNWLAWYQQKPGQPPKLLIYKASTLASGVSSRFKGSGSGTQFTLTISDLECADAATYYCQQGSSWINIEDVFGGGTEVVVK
notes: Rabbit clone; VH/VL only
B5 gave a Kd [2] of 27.7 nM.

B6: RNF43-20 (antibody, V domains shown)
VH: REQLVESGGGLVQPEGSLTLTCKASGFDFSSNVMCWVRQAPGKGLEWIGCIYTGSGSTAYASWAKGRFTITRSTSLNTVTLQMTSLTAADTATYFCARYVSGGEYYNLWGPGTLVTVSS
VL: ALVMTQTPASVEAAVGGTVTIKCQASQSISSYLNWYQQKPGQPPKLLIYKASTLASGVSSRFKGSGSGTQFTLTISDLECADAATYYCQQGSSWNSIENIFGGGTEVVVK
notes: Rabbit clone; VH/VL only
B6: no binding [2].

B7: ZNRF3-17 (antibody, V domains shown)
VH: EVQLVESGGGLVQPGGSLKLSCAASGFTFSNYDMAWVRQAPTKGLEWVASISTGGGKTYYRDSVKGRLTISRDNAKNTQYLQMDSLRSEDTATYYCARLGPAYSGEWFAYWGQGTLVTVSS
VL: DTVLTQSPALAVSPGERVTISCGASEGVNTRMHWYQQRSGQQPKLLIYGSSNLDSGVPDRFSGSGSGTDFTLTIDPVEAKDAATYFCQQSWNVPNTFGAGTKLELK
notes: Rat clone; VH/VL only
B7 showed a Kd [1] of 0.04 nM.

B8: ZNRF3-55 (antibody, V domains shown)
VH: EVHLVESGGGLVQPGGSLKLSCAASGFTFSNYDMAWVRQAPTRGLEWVASISPGGGKTYYRDSVKGRLTISRNNAENTQYLQIDSLRSEDTATYYCSRLGPAYSGEWFAYWGQGTLVTVSS
VL: DTVLTQSPALTVSPGDKITISCRASEGVNTRIHWYQQKSGQQPKLLIYGASNLDSGVPDRFSGSGFGTDFTLTIDPVEASDTATYFCQQSWNVPHTFGGGTKLELK
notes: Rat clone; VH/VL only
For B8, the Kd [1] was 0.02 nM.

B9: ZNRF3-163 (antibody, V domains shown)
VH: EVQLEESGGGLVQPGRSMKFSCAASGFTFSNYYMAWVRQAPSKGLEWVASISTGGGDVYYRDSVKGRFTISRDNAKSTLYLQMDSLRSEDTATYYCARHSGGRIRARGHYFDYWGQGVMVTVSS
VL: DIQMTQSPASLSASLGETVSIECLASEDISNDLAWYQQKSGKSPQVLIYGVSRLQDGVPSRFSGSGSGTRYSLKISGMQPEDEADYFCQQSYKYPYTFGAGTKLELK
notes: Rat clone; VH/VL only
With B9 the Kd [1] was 0.61 nM.

B10: ZNRF3-90 (antibody, V domains shown)
VH: EVQLVESGGGLVQPGRSMKLSCAASGFTFSNYYMAWVRQAPRKGLEWVASITTGGTNTYYRDSVRGRFTISRDNAKSTLYLQMDSLRSEETATYYCARHSGGLIRARGHYFHYWGQGVMVTVSS
VL: DIQMTQSPASLSASLGEIVSIECLASEGISNDLAWYQQKSGKSPQVLVYAASRLQDGVPSRFSGSGSGTRYSLKISGMQPEDEADYFCQQSYTYPYTFGAGTKLELK
notes: Rat clone; VH/VL only
Binder B10 has a Kd [1] of 0.27 nM.

B11: ZNRF3-171 (antibody, V domains shown)
VH: QVQLHQSGTELARPGTSVKLSCKASGYTFSRFYINWVKKRPGQGLEWIGYIDPGNGGTFHSEKFKDKASLTADTSSSTAYMVLGSLAPEDSAFYFCVRGYYSSYDWFAYWGQGTLVTVSS
VL: DIQLTQSPSSMSASLGDRVSLTCQSSQGIGNYLSWYQHKPGEPPKPILYYATNLADGVPSRFSGSRSGSDYSLTISSLESEDTAIYYCLQYDEYPYTFGPGTKLELR
notes: Rat clone; VH/VL only
Binder B11 has a Kd [1] of 1.01 nM.

B12: RNF43-16 (antibody, V domains shown)
VH: QSVEESGGRLVTPGTPLTLTCTVSGFFLSSYYMSWVRQAPGKGLEWIGYIYAGSGSTYYASWAKGRFTISKTSTTVDLKITSPTTEDTATYFCVRDINGGDYGMDPWGPGTLVTVSS
VL: DIVMTQTPASVSAAVGGTVTIKCQASESIDSGLAWYQQKPGQRPKLLIYAASNLASGVSSRFKGSGSGTEYSLTISGVQCDDAATYYCQCTYGSVTSNTYGIAFGGGTEVVVK
notes: Rabbit clone; VH/VL only
Binder B12 has a Kd [2] of 37.8 nM.

B13: ZNRF3-128 (antibody, V domains shown)
VH: EVQLVESGGGLVQPGKSLKLSCSASGFTFSSYGMHWIRQAPGKGLDWVAYISTNSATVYADAVKGRFTISRDNAKNTLYLQLNSLKSEDTAIYYCARSGYTTYMPFTYWGQGTLVTVSS
VL: DVLMTQTPVSLPVSLGGQVSISCRSSQSLVHSDGNTYLHWYLQKPGQSPQLLIYRVSNRFSGVSDRFSGSGSGTDFTLKISRVEPDDLGIYYCLQTTHFLTWTFGGGTKLELK
notes: Rat clone; VH/VL only
B13 gave a Kd [1] of 3.16 nM.

B14: RNF43-128 (antibody, V domains shown)
VH: EVQLQESGPGLVKPSQSLSLTCSVTGFSITSHYKWNWIRKFPRNKLEWMGYIDNSGSTNYIPSLKSRISITRDTSKNQFFLQVNSVTTEDTATYYCARDCLDWGQGVMVTVSS
VL: DVVLTQTPPTLSATIGQSVSISCRSSQSLLHSNGNTYLHWLIQRPGQSPQLLIYLVSRLESGVPNRFSGSGSGTDFSVKISGVEAEDLGIYYCVQDTHTPWTFGGGTKLELK
notes: Rat clone; VH/VL only
B14: no binding [2].

B15: ZNRF3-131 (antibody, V domains shown)
VH: EVQVVESGGGLVQPGRSLKVSCAASGFTFSRYGMAWVRQAPTKGLEWVASISTGGENTYYRDSVKGRFTISRDNVKNTLYLQMDSLRSEDTATYYCARHGRVLNYFDYWGQGVMVTVSL
VL: DIQMTQSPASLSASLGETVSIECLTSEDIYTYLAWYQQKPGKSPHLLIFAASRLQDGVPSRFSGSGSGTQYSLKISGMQPEDEGDYFCLQGSKFPYTFGAGTKLDLK
notes: Rat clone; VH/VL only
For B15, the Kd [1] was 2.39 nM.

B16: ZNRF3-101 (antibody, V domains shown)
VH: QVQLKESGPGLVQPTQTLSLTCTVSGFSLTSSTVSWVRQPPGKGLEWIAAISSAENTYYNSGLKSRLSISRDTSKSQVFLKMNSLQTEDTAMYFCAGGRILETLFDSWGQGVMVTVSS
VL: DIVLTQSPALAVSLGQRATISCKTNQNVDFYGKTYMHWYQQKRGQQPKLLIYLASNLASGIPARFSGRGSGTDFTLTIDPVATDDTATYYCQQTRSLPPTFGAGTKLELK
notes: Rat clone; VH/VL only
B16 gave a Kd [1] of 0.07 nM.

B17: RNF43-5 (antibody, V domains shown)
VH: QSVEESGGRLVTPGTPLTLTCTVSGFSLNTYAMGWVRQAPGKGLEWIGTIGSSGSTYYATWAKGRFTVSKTSTTVDLKITSPTTEDTATYFCVRGADGLNYYPIWGPGTLVTVSL
VL: AQVLTQTPSSVSAAVGGTVTINCQASQSVYNNKNLAWYQQKPGQPPKLLIYDASDLASGVSSRFKGSGSGTQFTLTISGVQCDDAATYYCQGEFNCDKGDCNAFGGGTEVVVK
notes: Rabbit clone; VH/VL only
B17 showed a Kd [2] of 1.1 nM.

B18: RNF43-2 (antibody, V domains shown)
VH: QSLEESGGDLVKPGASLTLTCTASGFSFSSSYYMCWVRQAPGKGLELIGCGFTGRHYTYYASWAKGRFTISKSSSTTVTLQMTSLTAADTATYFCARKSGSDYDYFDLWGPGTLVTVSS
VL: AYDMTQTPASVEAVVGGTVTIKCQASQSINSWLSWYQQKPGQRPKLLIYRASTLASGVSSRFKGSGSGTEFTLTISDLECADAATYYCQQGYVSSNINNVFGGGTEVVVK
notes: Rabbit clone; VH/VL only
B18: no binding [2].
